PMC11193727, “Neutralizing antibodies reveal cryptic vulnerabilities and interdomain crosstalk in the porcine deltacoronavirus spike protein” (Nature Communications, 2024)

B1: 42H3 human IgG1 monoclonal antibody (antibody, V domains shown)
VH: QVQLVESGGGVVQPGRSLRLSCAASGFTFSSYDMHWVRQAPGKGLEWVAVIWNDGSNEYYADSVKGRFIISRDNSKNTLYLQMNSLRAEDTAVYYCARRGIIMVRGLLGYWGQGTLVTVSS
VL: DIQMTQSPPSLSASVGDRVTITCRASQGISNYLAWHQQKPGKVPKLLIYTASTLQSGVPSRFSGSGSGTDFTLTISSLQPEDVATYYCQKYNSAPFTFGPGTKVDIK
notes: also called S1B neutralizer
B2: 46E6 human IgG1 monoclonal antibody (antibody, V domains shown)
VH: QVQLVESGGGVVQPGRSLRLSCAASGFTFSSYAMHWVRQAPGKGLEWVAVIWRDGSNEFYADSVKGRFTISRDNSKDTLYLQMNSLRAEDTAVYYCARRGIIMVRGLLGYWGQGTLVTVSS
VL: DIQMTQSPPSLSASVGDRVTITCRASQGISNYLAWHQQKPGKVPKLLIYTASTLQSGVPSRFSGSGSGTDFTLTISSLQPEDVATYYCQKYNSAPFTFGPGTKVDIK
notes: IgG1, kappa; also called S1B neutralizer
B3: 22C10 human IgG1 monoclonal antibody (antibody, V domains shown)
VH: EVRLLESGGGLVQPGGSLRLSCAASGFTFSSYAMSWVRQAPGKGLEWVSIITDSGGGTYFADSVKGRFTISRDNSKNTLYLQMNSLRAEDTALYYCVKVGFCYSSTCPFDYWGQGTLVTVSS
VL: ELVMTQSPATLSVSPGERATLSCRASQSVSSDLAWYQQRPGRAPRLLIYDASTRTTGIPARFSGSGSGTEFTLTISSLQSEDFAVYYCHQYNNWLTFGQGTRLEIK
notes: IgG1, kappa; also called mAb 22C10; source: HEK-293T, transient, purified (Protein A Sepharose)

Experiments:
[1] = target: PDCoV S ectodomain, prefusion S trimer (porcine deltacoronavirus (PDCoV)); experiment: cryo-EM structure; PDCoV S ectodomain (10.5 µM protomer) incubated with 22C10 Fab for about 10 min at room temperature
[2] = target: recombinant PDCoV S1 monomer (Porcine deltacoronavirus …, UniProt W8Q9Y7); experiment: BLI; settings: both partners purified
[3] = target: T1, recombinant PDCoV S1 monomer (porcine deltacoronavirus (PDCoV)); experiment: BLI
T1 chain: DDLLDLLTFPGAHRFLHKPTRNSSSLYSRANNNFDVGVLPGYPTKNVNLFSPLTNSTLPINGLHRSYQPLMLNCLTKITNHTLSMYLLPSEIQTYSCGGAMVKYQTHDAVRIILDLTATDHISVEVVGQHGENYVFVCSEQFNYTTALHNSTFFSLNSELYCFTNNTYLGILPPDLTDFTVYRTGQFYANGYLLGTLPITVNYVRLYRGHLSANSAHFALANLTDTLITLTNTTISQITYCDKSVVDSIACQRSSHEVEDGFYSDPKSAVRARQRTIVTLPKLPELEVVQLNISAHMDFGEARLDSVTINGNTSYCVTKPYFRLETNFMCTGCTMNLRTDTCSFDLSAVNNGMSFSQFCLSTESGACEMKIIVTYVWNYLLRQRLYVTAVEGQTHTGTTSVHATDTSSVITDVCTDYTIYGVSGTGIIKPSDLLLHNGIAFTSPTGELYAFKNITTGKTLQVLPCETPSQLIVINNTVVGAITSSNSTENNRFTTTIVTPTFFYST

[4] = target: T2, PDCoV S1 (wild type), ELISA antigen (Porcine deltacoronavirus …, UniProt W8Q9Y7); experiment: ELISA; settings: both partners purified
T2 construct: source: HEK-293T, purified (Protein A Sepharose)

[5] = target: T3, full length PDCoV S protein expressed on Huh7 cells (porcine deltacoronavirus (PDCoV)); experiment: immunostaining of cells or tissue; settings: one partner purified
T3 construct: source: Huh7, transfected (pCAGGS), formaldehyde-fixed cells
T3 chain: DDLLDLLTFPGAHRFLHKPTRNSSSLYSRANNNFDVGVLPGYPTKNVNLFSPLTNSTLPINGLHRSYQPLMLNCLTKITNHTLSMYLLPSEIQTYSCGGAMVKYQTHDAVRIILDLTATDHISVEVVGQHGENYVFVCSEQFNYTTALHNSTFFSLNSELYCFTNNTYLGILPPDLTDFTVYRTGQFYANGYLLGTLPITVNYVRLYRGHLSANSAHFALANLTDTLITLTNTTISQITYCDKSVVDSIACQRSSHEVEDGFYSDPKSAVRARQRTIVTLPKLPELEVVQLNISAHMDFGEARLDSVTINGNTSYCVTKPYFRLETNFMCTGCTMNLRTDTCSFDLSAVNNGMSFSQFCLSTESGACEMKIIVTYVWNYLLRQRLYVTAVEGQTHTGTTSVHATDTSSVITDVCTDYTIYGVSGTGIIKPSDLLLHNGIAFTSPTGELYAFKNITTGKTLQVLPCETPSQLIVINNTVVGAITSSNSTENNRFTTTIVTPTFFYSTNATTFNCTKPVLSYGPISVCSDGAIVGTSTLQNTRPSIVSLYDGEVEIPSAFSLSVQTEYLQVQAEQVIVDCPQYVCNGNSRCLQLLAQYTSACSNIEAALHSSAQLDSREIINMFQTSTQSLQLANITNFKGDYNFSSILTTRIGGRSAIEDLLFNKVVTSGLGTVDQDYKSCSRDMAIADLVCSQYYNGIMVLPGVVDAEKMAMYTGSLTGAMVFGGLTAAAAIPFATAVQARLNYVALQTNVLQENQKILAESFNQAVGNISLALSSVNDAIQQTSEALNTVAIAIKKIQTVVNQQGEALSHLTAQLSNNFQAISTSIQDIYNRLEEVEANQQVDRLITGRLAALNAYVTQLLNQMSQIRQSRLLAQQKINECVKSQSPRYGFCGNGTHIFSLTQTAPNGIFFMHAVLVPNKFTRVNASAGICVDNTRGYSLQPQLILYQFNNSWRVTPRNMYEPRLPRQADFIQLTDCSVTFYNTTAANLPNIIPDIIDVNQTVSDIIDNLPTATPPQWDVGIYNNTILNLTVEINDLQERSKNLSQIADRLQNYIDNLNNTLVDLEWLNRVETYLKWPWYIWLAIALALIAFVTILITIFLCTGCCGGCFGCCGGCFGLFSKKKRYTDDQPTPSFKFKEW

[6] = target: T4, PDCoV S ectodomain, prefusion S trimer (porcine deltacoronavirus (PDCoV)); experiment: BLI; monomeric S1B or untreated trimeric S immobilised on anti-strep mAb-coated protein A biosensor; mAb (50 µg/ml) or APN (100 µg/ml) for 30 min; settings: both partners purified
T4 construct: also called prefusion PDCoV S trimer; trimeric S ectodomain; source: HEK-293T, transient (pCAGGS), purified from culture supernatant (streptactin beads); not shown: GCN4 trimerization motif, C-terminal, kept; Strep-tag, C-terminal, kept
T4 chain: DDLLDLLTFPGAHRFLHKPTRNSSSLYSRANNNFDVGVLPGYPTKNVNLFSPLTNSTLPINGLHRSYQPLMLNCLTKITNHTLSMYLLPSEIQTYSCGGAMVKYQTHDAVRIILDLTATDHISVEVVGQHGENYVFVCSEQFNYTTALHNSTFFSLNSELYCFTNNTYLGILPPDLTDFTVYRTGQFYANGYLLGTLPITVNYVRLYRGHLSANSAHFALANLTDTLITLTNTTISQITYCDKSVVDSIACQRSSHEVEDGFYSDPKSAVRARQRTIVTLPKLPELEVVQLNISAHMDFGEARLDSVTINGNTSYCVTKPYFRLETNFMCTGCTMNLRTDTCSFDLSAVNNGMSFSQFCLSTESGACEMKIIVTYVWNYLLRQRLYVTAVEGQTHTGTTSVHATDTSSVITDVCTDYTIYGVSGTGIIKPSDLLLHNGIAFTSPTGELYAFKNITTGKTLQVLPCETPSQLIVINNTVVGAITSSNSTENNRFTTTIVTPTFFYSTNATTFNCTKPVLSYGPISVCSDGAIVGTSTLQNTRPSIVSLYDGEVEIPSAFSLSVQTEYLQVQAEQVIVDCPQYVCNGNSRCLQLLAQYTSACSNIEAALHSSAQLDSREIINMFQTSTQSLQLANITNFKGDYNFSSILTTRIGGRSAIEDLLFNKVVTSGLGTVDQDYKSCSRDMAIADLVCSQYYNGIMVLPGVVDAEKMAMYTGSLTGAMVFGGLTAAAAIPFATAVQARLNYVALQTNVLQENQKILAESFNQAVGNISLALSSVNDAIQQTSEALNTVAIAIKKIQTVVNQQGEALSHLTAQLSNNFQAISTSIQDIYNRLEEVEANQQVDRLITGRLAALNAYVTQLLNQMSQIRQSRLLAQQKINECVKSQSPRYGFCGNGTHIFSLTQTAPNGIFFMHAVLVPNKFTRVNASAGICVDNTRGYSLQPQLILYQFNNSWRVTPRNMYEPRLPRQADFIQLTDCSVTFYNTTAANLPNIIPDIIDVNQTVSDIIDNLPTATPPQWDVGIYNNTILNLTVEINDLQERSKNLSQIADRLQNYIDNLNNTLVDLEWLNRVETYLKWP

PDCoV S1A domain = target: T5, PDCoV S1A domain (Porcine deltacoronavirus …, UniProt W8Q9Y7); experiment: ELISA; purified Strep-tagged S antigens (S trimer, S1B, S1A; 1 µg/ml) coated on Maxisorp plates; human mAbs in fivefold dilutions from 10 µg/ml, RT 1 h; detection with HRP anti-human IgG; settings: both partners purified
T5 construct: also called N-terminal domain; NTD; source: HEK-293T, transient (pCAGGS), purified from culture supernatant (streptactin beads); not shown: triple Strep-tag, C-terminal, kept

Molecule | stoichiometry N [1] | binding result [2] | Kd [3] | binding result [4] | binding result [5] | binding result [6] | binding result (PDCoV S1A domain)
PDCoV S ectodomain, prefusion S trimer (domain or fragment) | 3 | – | – | – | – | – | –
B1 | – | binds | 42 nM | – | – | – | –
B2 | – | binds | 19.9 nM | – | – | – | –
B3 | – | binds | 46.6 nM | binds | binds | binds | binds
